In a protein production outcome set (Wang et al. 2014):

assay: label from the status in PepcDB records

**Q.** For “MQRQNKQQEDSFMIPETSYDIVVVGAGPAGSTAALYAAKKGASVLLLDKKREIGSPIQCAGFLPDASEVKALLPEADLPGALKNYPDSCVLQPIRTQRIIPPNCNAKEFAVKGAVLDRRRYDQYLAEQAAEAGAELMVKTRVTKIQGTTVETSGIFGKHTIRAKAIIGADGPNSLVAKSRGLIMKPEARETSVAIEYQVRNVDIDPDALEMYFGKDYVPGGYAWVFPEGKDRANVGIGIRSCMAEKGVSAKEYLHRFIKKHPVAGPKLKNAVIMNVIAGIIPVNGAPANTATADSLVVGDAAGHIIATNGGGIPPAMIAGKIAGETAAEFAAGKCDLEEYDRRWRAQFGQALETSVQARQIMDGIMKSDALMNAAFRFISPEQMKVMQCGKLPGPVKLGLQALSRGKK”, which protein production is on record?
**A.** The protein production was “failed”.

**Q.** For “MQSFFDREFTFDRTARLFFIILLVGGIMAIVIGLRGILIPFCLSWILAYVLMPLVRFVQYRLHFRFRFLSVITVLVFISALIFFAILSLVPAVEEEVSKTITLLQQYRIDENLLQMLPAPIRKFLSESGSMNDLFKGISYEKLMENSKEIFGQLNKLVSGTISLFSYTTIFFIGVLYFIFILFDFEKLGKGFVNLFPVGHRIRVRSILKEVDKNMNSYFRGQALIALCVGILLSIGYKIIDFPLGVTLGLFIGMLNLIPYLQIVGLIPIVFLSVLKAAQTGQNFFVVLALGIGVMMIVQVIQDTILTPNIMGKRMGMSPAMILLSISIWGSLLGFFGLFIALPLTMSLYSVYKRYVIQDPKFIREENEETMPKKGLFRKHSRKEEK”, which protein production is on record?
**A.** Its protein production is “failed”.

**Q.** With “MQSILKPITNLFTMIFQAIHGFVASLDIFGVGAGYVITIFLLTLLVRLILLPLNIKQTRSQQKMQEIQPEIAKLQKKYKNNPEKAQQEMMKLYKENNVNPMSGCLPLLIQMPILFALYYVFTGLTELQGVSFLWLGDLWAPDRTFILPILSAATTYLSSLLMTKFTQSQAGGAPGGMNMNTMNIVMAGMMGVMSIQFPSMLVLYWVIGNLIQMVQTYFIVVLPSRKRAKEKEQYKDIK” as the sequence, how does the protein production read?
**A.** The protein production was “failed”.

**Q.** For “MQSIRSILVVIDPTPGESLALKRAKLIAGVTQAHLHLLVCDRKHEHSALLSVLKSSLTGEGYSVTTEQAWNESLHETIIDVQQAEGCGLVIKQHLPDAPLKKALLTPADWKLLRYCPTPVLLVKTATPWVGGVVMAAIDVGNMDGEHRALHASIVDHGFDIASLAKAQLHVISAHPSPMLSAADPVFQLKETIEARYREQCKAFQAEFDIDDAHLHIEEGPADVLIPHLAHKLGAVLTIIGTVARTGISGALIGNTAEVVLDSLDSDVLVLKPADIMDHLEELAAKA”, which protein production is on record?
**A.** Its protein production is “not failed”.

**Q.** For “MQSRFRSDRRLTVRMGVTLFLLGLLYVGFVAALIALLKSWVLVVVIVALVFGAQYWFSDRIALFAMRGRVVEREEYPELHGVVDRLAAMADMPKPVVAVSEMEMPNAFATGRNPDNAVVCVTTGLLRRLEPAELEGVLAHELSHVAHKDVAVITVASFLGVIAGLIVRFAFYSQLFGGRRDQNTLAVLAVVMGVSAAVYALSFLLIRALSRYRELAADRAAALLTGRPSALAAALTKVTGDIARIPTKDLRTAQAFNAFYFTPAFGSDPGLGRFFATHPSLEQRLDQLGRISTELGEAPAPGKA”, which protein production is on record?
**A.** The protein production was “failed”.

**Q.** With “MQSRSKSDMKPIRKEILNPGNAYIELTPGTRRLTPHDIGLFQVKFHFQTRRAGDSRIIDDSRKMEKPMELVLGKKFKLEVWELIVQQMSLNEVAKFTVHKSLCAQYPFISKTLRDIGKKPEERRHCCGMTLQNEGIGYTDLDELLQNPSDLEFIIELFSIELPEQYEKERWQMSDDEKMLATSTLRERGNNFYKASRFTEAETCYREAVGIVEQLMLKEKPHDEEWQELAAIKTPLLLNYAQCRLIAGDFYAVIEHCNEVLTLDPRNVKALFRRAKAHAGAWNPAQARRDFLDALALDASLKSTVSKELKSIEDQQQARNVQDRIHMQKLF” as the sequence, how does the protein production read?
**A.** Its protein production is “failed”.

**Q.** With “MQSVSSMSSMDHFWLVIFCACVAFIPRFFPLLFFTKRKIPKWFNEWMRFVPVSLFTALVVKSVFIDSKYAVITSGNLGMIISAILVGFVAYRTRSMTLSVVIGLVSVMIFVLLIHI” as the sequence, how does the protein production read?
**A.** Its protein production is “failed”.

**Q.** For “MQSVWFYMGKSFKIHCLTYIIFILQWLIFLSCKKHYKGEKVDRKAGVILFWHGKLALMPFAFRHYRQKNKKAYVMISHHKDGEQIAKIIKLFGLDTVRGSTSRGASSALRAAFKVLEQNDDIVITPDGPRGPYHSISDGSIILAQKKELKIRILNYEANRFWKFKSWDKMILPKPFSKITYSLSEPLDILSLDKEKAKEFLMKQFDKISLADQFKE”, which protein production is on record?
**A.** The protein production was “failed”.

**Q.** With “MQTACQAVQHQRGRRQYNKLRNLLKDARHDCILFANEFQQCCYLPRERGESMEKWQTRSIYNAAVWYYHHCQDRMPIVMVTEDEEAIQQYGSETEGVFVITFKNYLDNFWPDLKAAHELCDSILQSRRERENESQESHGKEYPEHLPLEVLEAGIKSGRYIQGILNVNKHRAQIEAFVRLQGASSKDSDLVSDILIHGMKARNRSIHGDVVVVELLPKNEWKGRTVALCENDCDDKASGESPSEPMPTGRVVGILQKNWRDYVVTFPSKEEVQSQGKNAQKILVTPWDYRIPKIRISTQQAETLQDFRVVVRIDSWESTSVYPNGHFVRVLGRIGDLEGEIATILVENSISVIPFSEAQMCEMPVNTPESPWKVSPEEEQKRKDLRKSHLVFSIDPKGCEDVDDTLSVRTLNNGNLELGVHIADVTHFVAPNSYIDIEARTRATTYYLADRRYDMLPSVLSADLCSLLGGVDRYAVSIMWELDKASYEIKKVWYGRTIIRSAYKLFYEAAQELLDGNLSVVDDIPEFKDLDEKSRQAKLEELVWAIGKLTDIARHVRAKRDGCGALELEGVEVCVQLDDKKNIHDLIPKQPLEVHETVAECMILANHWVAKKIWESFPHQALLRQHPPPHQEFFSELRECAKAKGFFIDTRSNKTLADSLDNANDPHDPIVNRLLRSMATQAMSNALYFSTGSCAEEEFHHYGLALDKYTHFTSPIRRYSDIVVHRLLMAAISKDKKMEIKGNLFSNKDLEELCRHINNRNQAAQHSQKQSTELFQCMYFKDKDPATEERCISDGVIYSIRTNGVLLFIPRFGIKGAAYLKNKDGLVISCGPDSCSEWKPGSLQRFQNKITSTTTDGESVTFHLFDHVTVRISIQASRCHSDTIRLEIISNKPYKIPNTELIHQSSPLLKSELVKEVTKSVEEAQLAQEVKVNIIQEEYQEYRQTKGRSLYTLLEEIRDLALLDVSNNYGI” as the sequence, how does the protein production read?
**A.** Its protein production is “failed”.

**Q.** With “MQTESNPLAERFIARNLLDLAIRITLIGGLTVWCYRVAEPFIGMLLWSIILAVTLAPLHMRLTRLLGARPRLAAVVLTLATMLVLLVPGAMLTASLGDSLVNIFHHSTGRIVRIPAPPDFVIELPLIGVRLHEIWLQAMTNLQDVLKPLQPHLATAGRWLLAGMASAGLGIAVFLASIAIAGVILVYADPAKRAAHAIGVRIAGPEQGVALAQLTAATIRAVAQGVIGVALIQAVLAGLGFLLAGVPAAGLWAIVALLICIVQLPLFLLMVPMVVYVFLNNTPTVAAVFAVWCLLVSLCDNVLKPLMLARGVDIPIPVILIGALGGVLAAGIVGLFLGSVGFGLGYVLFMQWVRQQSPAG” as the sequence, how does the protein production read?
**A.** Its protein production is “failed”.

**Q.** For “MQTFAPGTRVYHLIIIVFFFFFCLSSFFASIVMADEYTGEATGSSEAKVHIIYTEKPTDEEPKTYHLRTLSSALGSEEAAKDALIYSYKEAASGFSAKLTPEQVAEISKQPGVIQVVPSQTYQLHKPGGGGGFKLT”, which protein production is on record?
**A.** The protein production was “failed”.

**Q.** For “MQTFFQDTMATPLGELLIIADENNHLRAVEWREYEDGLFRSLNRSYRNDPFSLQSRHNPGGLTDSLQRYFDGELAIIDTLPVASVGTEFQQQVWRELRRIPCGEITTYGELATLLGRTGAARAVGMANGSNPISIVVPCHRVIGTGGALTGYAGGIHRKQWLLAHEGYLPHQNSLPL”, which protein production is on record?
**A.** The protein production was “failed”.

**Q.** For “MQTKKAFLYVFNTMSDWEYGYLIAELNSGRYFKKDLAPLKVITVGANKEMITTMGGLRIKPDISLDECTLESKDLLILPGGTTWSEEIHQPILERIGQALKIGTIVAAICGATDALANMGYLDTRKHTSNNLEYTKMVCPNYKGEKFYELGPAVSDANLVTASGIAPLEFAMEVLKKIDVFTLDALHSWYNLNKTHKPEYFFQLMNSINK”, which protein production is on record?
**A.** Its protein production is “not failed”.

**Q.** Which protein production does the source give for “MQTPSKKYVVDIWSDFVCPWCWIAKRRFENALNRSGMQDDVQVNVRAYRLAANQAPEPMIGALKRKLGNPASADSMMSTVSKYGRADGLDYRFDTMMFGDTADAHILVKAVEDTAVKKRLVEALYEQSTSHGRSLFDRSSLEAIAREVGVSDESIQLAWSSVELRNEMKDDESFAAQLGSGVPLFVFDSSFSVSGAQPDAVFLEALNKMVANSNPEDSSMMGQVCSIDGCKV” here?
**A.** The protein production was “not failed”.

**Q.** Which protein production does the source give for “MQTQIKVRGYHLDVYQHVNNARYLEFLEEARWDGLENSDSFQWMTAHNIAFVVVNININYRRPAVLSDLLTITSQLQQLNGKSGILSQVITLEPEGQVVADALITFVCIDLKTQKALALEGELREKLEQMVK” here?
**A.** The protein production was “not failed”.

**Q.** For “MQTVLKKRKKSGYGYIPDIADIRDFSYTPEKSVIAALPPKVDLTPSFQVYDQGRIGSCTANALAAAIQFERIHDKQSPEFIPSRLFIYYNERKIEGHVNYDSGAMIRDGIKVLHKLGVCPEKEWPYGDTPADQKTEEFPPGAPASKKPSDQCYKEARNYKITEYSRVAQDIDHLKACLAAGSPFVFGFSVYNSWVGNNSLPVKIPLPTKNDKLEGGHAVLCVGYDDEIRHFRIRNSWGNNVGENGYFWMPYEYIRNRQLADDFWVIKTVRK”, which protein production is on record?
**A.** The protein production was “failed”.

**Q.** For “MQTVQALLTAAKVDGAKSPYDTIHIKVLYPAKNTDSNLEKSWGMLPIDTAQAPLPVMIFFNGFNCDAQKYQWLGIELAQTGLVVVMFNWVGESLPGLVSFTPGFEIEKRKREFYGTAPTASALPAILTTLAQLQREGILAGTLDLEKIILGGHSEGGRVAMENANPNFFPQVVASFAYGSHTAGAVMLGYKPNTILPLPDTLPRLVIGGTHDGVIASSSSHFGLNTKDATTPVIRTFQEAIMGGHENSYLLILRGANHFSIVDIVDSTLALPFKDIPATQPQEHFRLLLATIIHLFIDAHVRHQPEAFQKLEQL”, which protein production is on record?
**A.** The protein production was “failed”.

**Q.** For “MQTVRGWLTLPLALLIVLTGCMAVLSALVIEVQAGATSWIIGESHWSKAQQESVYWLERYLGSADPADLQAACRALEVPLGDRAARLAVDASPIDWAEVYAGLAAGRNAREDMPQMVRLYRYGQRLPYLGSAIALWKHTDGDILHLSLLADRAASAQATGTPDARALQSLRAELHLLDGRMRRDAAQFLTLLTRCARMLHDVMVTCSLATLLLVLSTCVLAIRRTRDYLMSHEGRFRTAFQHAALGMVKFDLSGRVLDANASLANILQYPPEALQACTLAEVMHPDDIVLDSRGLIDWPRLMQAGELRFLRSDGGVLWGRWSASLVEPGPQEPSLVLAVIEDVSQAHELADEVAYHARHDALTGLINRREIERRLQRLIDPPQSPQLCHALCFVDLDHFKLVNDTFGHAVGDKFLCHFADVITMQLRPGDWLGRLGGDEFAILLANTDLAHAHTLLERMHGVLGQPWSHQGGRPLTPSCSFGVVEIRQGADDVNLLMTAADLACHAAKEEGRNRIRSFGETDLAMARRRHDGGWISAVQQAIAEDRLLLYAQKIQVLSDPGRVQYEVLVRMRTRDGRVLSPGEFLPAVERYGLGRMVDAHVLETLCAQLSANPAHVASLDLCHVNLSAQSIAQRDFLDFVCALFERYPALVAKLCLEITETAVIGDLEHAQRFVQSVRARGCHVALDDFGSGLASFGYLKQFTVDVLKIDCGFVRNYAHDAVDRATVHSIAQVGLALGIEVVAEGVESEADIAGLREAGVGQVQGFSLHRPCPLDDLLHVSLPSLAAS”, which protein production is on record?
**A.** The protein production was “failed”.

**Q.** Which protein production does the source give for “MQVKENKQLCLISLGCSKNLVDSEVMLGKLYNYTLTNDAKSADVILINTCGFIESAKQESIQTILNAAKDKKEGAILIASGCLSERYKDEIKELIPEVDIFTGVGDYDKIDIMIAKKQNQFSEQVFLSEHYNARIITGSSVHAYVKISEGCNQKCSFCAIPSFKGKLQSRELDSILKEVENLALKGYTDMTFIAQDSSSFLYDKGQKDGLIQLIRAIDKQQALKSARILYLYPSSTTLELIGAIESSPIFQNYFDMPIQHISDSMLKKMRRNSSQAHHLKLLDAMKQVKESFIRSTIIVGHPEENESEFEELSAFLDEFQFDRLNIFAFSAEENTHAYSLEKVPKKTINARIKALNKIALKHQNHSFKALLNKPIKALVENKEGEYFYKARDLRWAPEVDGEILINDSELTTPLKPGHYTIAPSEFKDNILLAKVLSPF” here?
**A.** The protein production was “failed”.

**Q.** For “MQVKTEEKSVNNKKLIPFWVIERALEGDIQAINKILKHYEGYIAKLSVRKMYDEYGCVHYCVDETLRRRLETKLIKTIIGFKIVRLEHHHHHH”, which protein production is on record?
**A.** Its protein production is “not failed”.
